Reference: patent publication US20240383984A1 (Genentech, published 2024)
Numbering of substitutions follows the chain as printed.

T1: human FcRH3 (BIACORE analyte) (human, UniProt Q96P31 18-573, limits assumed)
T1 construct: also called huFcRH3
T1 sequence (looked up): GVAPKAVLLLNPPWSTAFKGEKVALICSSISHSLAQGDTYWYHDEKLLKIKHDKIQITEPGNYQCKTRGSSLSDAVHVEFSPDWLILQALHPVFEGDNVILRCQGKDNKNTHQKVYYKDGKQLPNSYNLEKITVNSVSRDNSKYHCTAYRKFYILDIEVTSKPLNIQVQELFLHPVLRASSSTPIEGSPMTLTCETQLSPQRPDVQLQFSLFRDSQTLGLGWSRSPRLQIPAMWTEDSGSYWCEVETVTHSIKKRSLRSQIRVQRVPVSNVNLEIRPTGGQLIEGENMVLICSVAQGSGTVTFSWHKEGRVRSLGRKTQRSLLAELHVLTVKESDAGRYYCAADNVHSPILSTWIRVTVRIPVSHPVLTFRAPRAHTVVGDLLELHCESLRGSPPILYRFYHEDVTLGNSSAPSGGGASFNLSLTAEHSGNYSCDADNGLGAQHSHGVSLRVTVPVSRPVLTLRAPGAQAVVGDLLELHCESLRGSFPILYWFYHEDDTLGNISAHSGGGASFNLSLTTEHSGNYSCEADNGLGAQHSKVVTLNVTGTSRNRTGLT

T2: human FcRH3 (full-length, on SVT2 cells) (human, UniProt Q96P31 18-734)
T2 construct: whole, on cells; also called SVT2-FcRH3
T2 sequence (looked up): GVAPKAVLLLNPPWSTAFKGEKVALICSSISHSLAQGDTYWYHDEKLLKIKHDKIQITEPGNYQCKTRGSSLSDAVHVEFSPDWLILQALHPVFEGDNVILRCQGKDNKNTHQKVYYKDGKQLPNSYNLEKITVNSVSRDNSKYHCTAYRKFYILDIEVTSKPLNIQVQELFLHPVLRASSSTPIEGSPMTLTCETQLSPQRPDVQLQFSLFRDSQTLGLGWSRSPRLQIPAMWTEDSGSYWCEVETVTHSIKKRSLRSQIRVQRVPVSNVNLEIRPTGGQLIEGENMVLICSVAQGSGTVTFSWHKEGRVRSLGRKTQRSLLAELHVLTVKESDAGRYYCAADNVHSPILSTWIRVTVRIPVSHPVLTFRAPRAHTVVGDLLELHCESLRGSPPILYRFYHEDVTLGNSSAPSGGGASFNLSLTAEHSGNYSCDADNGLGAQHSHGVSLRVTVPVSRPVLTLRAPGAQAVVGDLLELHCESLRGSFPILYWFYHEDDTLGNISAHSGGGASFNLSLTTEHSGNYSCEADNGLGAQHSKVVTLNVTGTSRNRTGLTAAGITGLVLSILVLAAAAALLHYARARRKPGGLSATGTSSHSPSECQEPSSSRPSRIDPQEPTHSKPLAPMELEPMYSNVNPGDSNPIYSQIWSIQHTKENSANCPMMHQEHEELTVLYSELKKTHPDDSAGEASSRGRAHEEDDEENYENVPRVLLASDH

T3: cynomolgus FcRH5 (full-length, on cells) (cynomolgus monkey)
T3 construct: also called SVT2-Cyno-FcRH5; cyno FcRH5
T3 chain: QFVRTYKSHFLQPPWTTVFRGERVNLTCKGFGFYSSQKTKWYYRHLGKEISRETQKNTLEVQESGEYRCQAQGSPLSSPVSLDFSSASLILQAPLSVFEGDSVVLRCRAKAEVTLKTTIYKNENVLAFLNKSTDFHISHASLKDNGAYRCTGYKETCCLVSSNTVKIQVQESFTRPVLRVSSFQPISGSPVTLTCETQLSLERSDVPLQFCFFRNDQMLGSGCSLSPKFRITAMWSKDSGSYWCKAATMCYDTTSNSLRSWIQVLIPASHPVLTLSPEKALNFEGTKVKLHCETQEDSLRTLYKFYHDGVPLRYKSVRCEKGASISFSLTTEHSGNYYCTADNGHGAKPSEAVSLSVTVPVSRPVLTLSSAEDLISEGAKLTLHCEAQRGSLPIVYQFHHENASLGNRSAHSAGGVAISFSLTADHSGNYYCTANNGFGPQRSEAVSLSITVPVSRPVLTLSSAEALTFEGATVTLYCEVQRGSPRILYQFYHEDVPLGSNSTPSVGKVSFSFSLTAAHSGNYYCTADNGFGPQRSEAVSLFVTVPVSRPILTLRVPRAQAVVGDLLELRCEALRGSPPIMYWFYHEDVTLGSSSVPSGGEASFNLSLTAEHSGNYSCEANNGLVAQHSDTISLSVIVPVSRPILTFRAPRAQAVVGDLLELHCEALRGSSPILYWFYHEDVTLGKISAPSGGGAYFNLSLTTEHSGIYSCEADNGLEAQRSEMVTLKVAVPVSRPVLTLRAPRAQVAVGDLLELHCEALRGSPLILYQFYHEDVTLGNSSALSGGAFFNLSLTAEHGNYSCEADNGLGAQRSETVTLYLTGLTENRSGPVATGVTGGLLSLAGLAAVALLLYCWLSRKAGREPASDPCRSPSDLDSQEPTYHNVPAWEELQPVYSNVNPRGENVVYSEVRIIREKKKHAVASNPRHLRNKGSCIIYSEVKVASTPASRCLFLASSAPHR

B1: hu1G7.v1.4/38E4.v1 TDB (bispecific antibody, V domains shown)
VH 1: EVQLVESGPGLVKPSETLSLTCTVSGFSLTRFGVHWVRQPPGKGLEWLGVIWRGGSTDYNAAFMSRLTISKDNSKNQVSLKLSSVTAADTAVYYCSNHYYGSSDYALDNWGQGTLVTVSS
VL 1: DIQMTQSPSSLSASVGDRVTITCKASQDVRNLVVWFQQKPGKAPKLLIYSGSYRYSGVPSRFSGSGSGTDFTLTISSLQPEDFATYYCQQHYSPPYTFGQGTKVEIK
VH 2: EVQLVQSGAEVKKPGASVKVSCKASGFTFTSYYIHWVRQAPGQGLEWIGWIYPENDNTKYNEKFKDRVTITADTSTSTAYLELSSLRSEDTAVYYCARDGYSRYYFDYWGQGTLVTVSS
VL 2: DIVMTQSPDSLAVSLGERATINCKSSQSLLNSRTRKNYLAWYQQKPGQSPKLLIYWTSTRKSGVPDRFSGSGSGTDFTLTISSLQAEDVAVYYCKQSFILRTFGQGTKVEIK
notes: knob-into-hole TDB; also called 1G7.v1.4 TDB; 1G7.v1.4 (TDB format)
B2: 1G7.v85/38E4.v1 TDB (bispecific antibody, V domains shown)
VH 1: B1 VH 1 with M64V
VL 1: B1 VL 1
VH 2: B1 VH 2
VL 2: B1 VL 2
notes: knob-into-hole TDB; also called 1G7.v85 TDB; 1G7.v85 (TDB format)
B3: hu1G7.v1.13.1/38E4.v1 TDB (bispecific antibody, V domains shown)
VH 1: B1 VH 1
VL 1: B1 VL 1 with S52Y, S56T, S93Q
VH 2: B1 VH 2
VL 2: B1 VL 2
notes: knob-into-hole TDB; also called 1G7.v1.13.1 TDB
B4: hu1G7.v1.2/38E4.v1 TDB (bispecific antibody, V domains shown)
VH 1: B1 VH 1
VL 1: B1 VL 1 with S52Y, Y53N, H91Q, Y92F, S93Q
VH 2: B1 VH 2
VL 2: B1 VL 2
notes: knob-into-hole TDB; also called 1G7.v1.2 TDB
B5: hu1G7.v1.3/38E4.v1 TDB (bispecific antibody, V domains shown)
VH 1: B1 VH 1
VL 1: B1 VL 1 with L32I, H91Q
VH 2: B1 VH 2
VL 2: B1 VL 2
notes: knob-into-hole TDB; also called 1G7.v1.3 TDB
B6: hu1G7.v1.1/38E4.v1 TDB (bispecific antibody, V domains shown)
VH 1: B1 VH 1
VL 1: B1 VL 1 with H91Q
VH 2: B1 VH 2
VL 2: B1 VL 2
notes: knob-into-hole TDB; also called 1G7.v1.1 TDB
B7: hu1G7.v1.13/38E4.v1 TDB (bispecific antibody, V domains shown)
VH 1: B1 VH 1 with L48I
VL 1: B1 VL 1 with S52Y, S56T, S93Q
VH 2: B1 VH 2
VL 2: B1 VL 2
notes: knob-into-hole TDB; also called 1G7.v1.13 TDB

target: T1, human FcRH3 (BIACORE analyte); assay: BIACORE

Kd [nM] | Binder
~80 | B1
~90 | B2

target: T2, human FcRH3 (full-length, on SVT2 cells); assay: FACS, SVT2 cells, 3 µg/ml
Method: (§1) Human FcRH5, cyno FcRH5, human FcRH1, FcRH2, FcRH3, and FcRH4 transfected mouse SVT2 cells were used to test binding and cross-reactivity of FcRH5 TDBs. The method was carried out as follows. Cultured SVT2 cells were lifted using non-enzyme cell dissociation buffer (Sigma, #C5914). 1×10⁵ cells were suspended in 100 μL and incubated with FcRH5 TDBs at 3 μg/ml. […] Cells were washed twice with FACS buffer before flow cytometry analysis was carried out on a FACSCalibur.

binding result | Binder
binds | B3
binds | B4
binds | B5
binds | B6
binds | B7

Target: T3, cynomolgus FcRH5 (full-length, on cells)
Assay: FACS, SVT2 cells, 3 µg/ml
Method: as §1

binding result | Binder
binds | B3
binds | B4
binds | B5
binds | B6
binds | B7
